Measured values as given in US20230272011A1 (AVACTA LIFE SCIENCES, published 2023).
Positions count from the first letter of the chain named. Names may count otherwise. One block for each binder: values may come before it.

Legend:
[1] = target: T1, human PD-L1-Fc (R&D Systems) chimeric protein (human, UniProt Q9NZQ7 19-239); assay: SPR (Biacore T200), PD-L1-Fc amine-coupled to CM5, Affimer analyte; apparent KD
T1 construct: Bought reagent; also called rhPD-L1-Fc; huPD-L1; Fc part of the bought chimera not given, not described
Description: (§1) ILF dimer production from E. coli was performed as described in Example 3. Briefly, protein was purified using three stages: affinity capture, IEX, and preparative SEC. […] To analyze PD-L1-Fc binding kinetics, a Biacore T200 kinetic analysis was performed using running buffer HBS-EP+ and series S sensor CM5 (GE Healthcare) chip Fc2 immobilized with PD-L1-Fc (R&D Systems) in 10 mM sodium acetate pH 4.0 using amine coupling reagents (GE Healthcare). The concentration titration of ILF AFFIMER® polypeptides was run as analyte at a flow rate of 30 μl/min. […] with 3 mM NaOH (GE healthcare) for 20 seconds at 20 μl/min flow rate. The Fc2-1 data blank was subtracted and fit to a 1:1 Langmuir binding model (Biacore evaluation software; GE) to calculate an apparent KD value.

human serum albumin [2] = target: T2, human serum albumin (human, UniProt P02768 25-609); assay: SPR (Biacore), immobilised HSA, Affimer analyte
T2 construct: mature; Bought protein; biotinylated in the Octet and HTRF assays; also called HSA; HuSA

[3] = target: T1, human PD-L1-Fc (R&D Systems) chimeric …; assay: SPR (Biacore T200), PD-L1-Fc amine-coupled to CM5, Affimer analyte
Description: as §1

cynomolgus serum albumin [4] = target: T3, cynomolgus serum albumin (cynomolgus); assay: BLI (Octet), biotinylated albumin on SA sensor, pH 6.0
T3 construct: also called CSA; cyno serum albumin
Description: (§2) Biotinylated antigen was captured onto SA sensors at 1 μg/ml for 600 seconds in a buffer comprising PBS-T (0.01% Tween 20)+1% casein at either pH 6.0 or 7.4. Association was carried out for 300 seconds and dissociation for 600 seconds, and regeneration was performed using 10 mM glycine pH 1.5 (GE Healthcare) for 3×5 seconds. All steps were carried out at 1000 rpm and 25° C. Purified AFFIMER® polypeptide in two-fold serial dilutions was analyzed at a starting concentration of approximately 10× K_{D value}. Kinetics analyses were carried out using the Octet data analysis software, subtracting the reference sensor (loaded with antigen), aligning the Y-axis to baseline, and using inter-step correction to align association to dissociation. Savitzky-Golay filtering was applied and the data processed. Analysis of the data was carried out with a 1:1 model, global fit, Rₘₐₓ unlinked by sensor.

human serum albumin [5] = target: T2, human serum albumin; assay: as above
Description: as §2

mouse serum albumin = target: T4, mouse serum albumin (mouse, UniProt P07724 25-608); assay: as above
T4 construct: also called MSA
Description: as §2

cynomolgus serum albumin [6] = target: T3, cynomolgus serum albumin; assay: BLI (Octet), biotinylated albumin on SA sensor, pH 7.4
Description: as §2

human serum albumin [7] = target: T2, human serum albumin; assay: as above
Description: as §2

human serum albumin [8] = target: T2, human serum albumin; assay: SPR (Biacore) binding response to HSA at pH 7.4, Affimer at 50 nM
Description: (§3) Final clones were sequence-verified, produced from E. coli, and affinity purified as described in Example 3.

human serum albumin [9] = target: T2, human serum albumin; assay: SPR (Biacore) response to HSA, pH 7.4
Description: as §3

T1 sequence (Q9NZQ7 19-239, change not shown): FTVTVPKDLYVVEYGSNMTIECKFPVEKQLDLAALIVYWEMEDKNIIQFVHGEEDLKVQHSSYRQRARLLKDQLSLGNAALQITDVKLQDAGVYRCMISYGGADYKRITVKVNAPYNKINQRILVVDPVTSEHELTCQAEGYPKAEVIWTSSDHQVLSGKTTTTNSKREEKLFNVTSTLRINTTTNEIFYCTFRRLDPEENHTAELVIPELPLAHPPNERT
T3 sequence (A2V9Z4 25-608): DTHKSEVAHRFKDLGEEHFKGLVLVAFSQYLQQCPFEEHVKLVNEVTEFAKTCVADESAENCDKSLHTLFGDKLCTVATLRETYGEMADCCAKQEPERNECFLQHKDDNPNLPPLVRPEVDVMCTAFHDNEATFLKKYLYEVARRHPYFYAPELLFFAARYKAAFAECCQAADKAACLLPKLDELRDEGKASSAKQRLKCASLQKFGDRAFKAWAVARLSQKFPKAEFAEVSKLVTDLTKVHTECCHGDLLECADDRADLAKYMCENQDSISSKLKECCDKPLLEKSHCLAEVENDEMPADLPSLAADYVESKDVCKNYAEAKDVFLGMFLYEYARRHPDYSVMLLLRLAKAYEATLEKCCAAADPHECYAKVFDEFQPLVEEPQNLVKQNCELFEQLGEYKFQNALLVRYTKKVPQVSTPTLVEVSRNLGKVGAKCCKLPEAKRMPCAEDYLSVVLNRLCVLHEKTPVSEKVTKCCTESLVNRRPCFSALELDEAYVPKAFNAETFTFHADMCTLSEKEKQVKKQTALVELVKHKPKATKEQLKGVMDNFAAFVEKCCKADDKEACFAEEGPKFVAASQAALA
T4 sequence (P07724 25-608 limits assumed): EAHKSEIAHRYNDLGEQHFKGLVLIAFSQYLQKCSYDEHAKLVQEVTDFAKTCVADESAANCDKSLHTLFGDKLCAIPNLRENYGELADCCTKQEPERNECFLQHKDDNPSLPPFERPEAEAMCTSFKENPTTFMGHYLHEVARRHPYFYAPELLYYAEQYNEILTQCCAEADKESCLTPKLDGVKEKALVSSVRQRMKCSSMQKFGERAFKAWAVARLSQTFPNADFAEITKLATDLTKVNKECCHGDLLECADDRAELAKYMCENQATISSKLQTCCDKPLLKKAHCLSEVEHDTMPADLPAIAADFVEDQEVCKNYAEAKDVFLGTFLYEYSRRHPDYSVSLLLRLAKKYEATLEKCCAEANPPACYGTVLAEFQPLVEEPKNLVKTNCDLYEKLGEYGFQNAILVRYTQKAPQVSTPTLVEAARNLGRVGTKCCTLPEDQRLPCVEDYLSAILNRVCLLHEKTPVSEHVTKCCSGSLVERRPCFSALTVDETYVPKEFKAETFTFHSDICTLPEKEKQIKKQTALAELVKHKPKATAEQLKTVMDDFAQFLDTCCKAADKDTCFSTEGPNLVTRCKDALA

- Kd (cynomolgus serum albumin [4]): 231 nM
- Kd (human serum albumin [5]): 136 nM
- Kd (mouse serum albumin): 834 nM
- Kd (cynomolgus serum albumin [6]): 221 nM
- Kd (human serum albumin [7]): 113 nM
B2: HSA-37 (designed binder)
chain: MIPRGLSEAKPATPEIQEIVDKVKPQLEEKTNETYGKLEAVQYKTQVLAGFWASKWPGSTNYYIKVRAGDNKYMHLKVFNGPFTAVSKKDAADRVLTGYQVDKNKDDELTGFHHHHHH

- binding response (human serum albumin [8]): 2.6
- binding result (human serum albumin [9]): no binding (tested: 50 nM)
B5: HSA-41 W56A (designed binder)
chain: MIPRGLSEAKPATPEIQEIVDKVKPQLEEKTNETYGKLEAVQYKTQVLANFFQRRAPGSTNYYIKVRAGDNKYMHLKVFNGPWKFRNTDRGADRVLTGYQVDKNKDDELTGFHHHHHH

- binding response (human serum albumin [8]): 2.2
- binding result (human serum albumin [9]): no binding (tested: 50 nM)
B6: HSA-41 F52A (designed binder)
chain: B5 chain with F52A, A56W

- binding response (human serum albumin [8]): 2.9
- binding result (human serum albumin [9]): no binding (tested: 50 nM)
B8: HSA-41 R55A (designed binder)
chain: B5 chain with R55A, A56W

- binding response (human serum albumin [8]): 2.9
- binding result (human serum albumin [9]): no binding (tested: 50 nM)
B9: HSA-41 W83A (designed binder)
chain: B5 chain with A56W, W83A

The next lines start with the binder.

B1: AVA04-261 XT10 (designed binder)
chain: MIPRGLSEAKPATPEIQEIVDKVKPQLEEKTNETYGKLEAVQYKTQVLAHAYGPRDWDSTNYYIKVRAGDNKYMHLKVFNGPPADHVLEEAADRVLTGYQVDKNKDDELTGFAEAAAKEAAAKEAAAKEAAAKEAAAKEAAAKMIPRGLSEAKPATPEIQEIVDKVKPQLEEKTNETYGKLEAVQYKTQVLANFFQRRWPGSTNYYIKVRAGDNKYMHLKVFNGPWKFRNTDRGADRVLTGYQVDKNKDDELTGFHHHHHH
- Kd [1]: 9.44 nM
- Kd (human serum albumin [2]): 9.7 nM
- koff (human serum albumin [2]): 0.00291 s⁻¹
- kon (human serum albumin [2]): 299000 M⁻¹ s⁻¹
- koff [3]: 0.00826 s⁻¹
- kon [3]: 875000 M⁻¹ s⁻¹

B3: AVA04-261 XT9 (designed binder)
chain: MIPRGLSEAKPATPEIQEIVDKVKPQLEEKTNETYGKLEAVQYKTQVLAHAYGPRDWDSTNYYIKVRAGDNKYMHLKVFNGPPADHVLEEAADRVLTGYQVDKNKDDELTGFGGGGSGGGGSGGGGSGGGGSGGGGSGGGGSMIPRGLSEAKPATPEIQEIVDKVKPQLEEKTNETYGKLEAVQYKTQVLANFFQRRWPGSTNYYIKVRAGDNKYMHLKVFNGPWKFRNTDRGADRVLTGYQVDKNKDDELTGFHHHHHH
- Kd [1]: 17.9 nM
- Kd (human serum albumin [2]): 13.3 nM
- koff (human serum albumin [2]): 0.00357 s⁻¹
- kon (human serum albumin [2]): 269000 M⁻¹ s⁻¹
- koff [3]: 0.00707 s⁻¹
- kon [3]: 395000 M⁻¹ s⁻¹

B4: HSA-22 (designed binder)
chain: MIPRGLSEAKPATPEIQEIVDKVKPQLEEKTNETYGKLEAVQYKTQVLANWYQQRWPGSTNYYIKVRAGDNKYMHLKVFNGPWHNYGESSGADRVLTGYQVDKNKDDELTGFHHHHHH
- Kd (cynomolgus serum albumin [4]): 146 nM
- Kd (human serum albumin [5]): 44.7 nM
- Kd (mouse serum albumin): 334 nM
- Kd (cynomolgus serum albumin [6]): 348 nM
- Kd (human serum albumin [7]): 152 nM

B7: HSA-41 F51A (designed binder)
chain: B5 chain with F51A, A56W
- binding response (human serum albumin [8]): 2.8
- binding result (human serum albumin [9]): no binding (tested: 50 nM)
